Results taken from article PMC2780912.

Experiments:
[1] = biological target: HCV E2 on E2-CT26 cells (Hepatitis C virus (genotype 1a)) (UniProt P27958); assay: flow cytometry; conditions: Flow cytometry: 250 nM aptamer, 1e6 cells, 37 C 15 min; selection buffer 25 mM Tris-HCl, 50 mM KCl, 200 mM NaCl, 0.2 mM EDTA, 5% glycerol, 0.5 mM DTT (pH not …)
[2] = biological target: GST-E2 (Hepatitis C virus) (UniProt P27958); assay: competition (flow cytometry); conditions: Flow cytometry: 250 nM aptamer, 1e6 cells, 37 C 15 min; selection buffer 25 mM Tris-HCl, 50 mM KCl, 200 mM NaCl, 0.2 mM EDTA, 5% glycerol, 0.5 mM DTT (pH not …); scale: % inhibition of E2 binding to Huh7.5.1 cells

Sequence | Kd [1] | binding signal [2]
CGCCGTATTAAGATTGGGAGACCTGGTAGA [ZE3] | 3.22 nM | 
GAATGAGGAATAATCTAGCTCCTTCGCTGA [ZE2] | 1.05 nM | 80
GGGCCTCGATTTAGTTCGCGGCCATAGGGC [ZE4] | 8.85 nM | 
TCCATTCATGTAACGAACATAGTTTTGGCA [ZE5] | 4.29 nM | 
